Consider 54 molecules from paper PMC314469, “Protein Interaction Networks by Proteome Peptide Scanning” (PLoS Biology, 2004).

First the molecules themselves.
T1: Abp1 SH3 (ABP1_YEAST), P15891
T1 chain: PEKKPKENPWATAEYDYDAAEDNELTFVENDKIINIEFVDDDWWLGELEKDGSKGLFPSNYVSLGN

B1: YGL201C 3-15 (peptide)
chain: SPFPADTPSSNRP
B2: YPR008W 490-502 (peptide)
chain: SNYITDRPFTRKP
B3: YLR144C 4-16 (peptide)
chain: SRQAIPPPVPNRP
B4: YNL230C 233-245 (peptide)
chain: SSSPKKGPLSIKP
B5: YML027W 280-293 (peptide)
chain: SSSSSPLENTPPRP
B6: YER040W 495-507 (peptide)
chain: SSSRSVVPILPKP
B7: YOR023C 198-210 (peptide)
chain: SNGLLLEPSALRP
B8: YPR181C 246-258 (peptide)
chain: SPDQWSVPAGHRP
B9: YOR367W 152-164 (peptide)
chain: STKKPRPPVKSKP
B10: YER005W 601-613 (peptide)
chain: SQSANLAPSNLRP
B11: YER131W 88-101 (peptide)
chain: SREDRKNRAPPQRP
B12: YNL298W 398-411 (peptide)
chain: SPSPSPSPLNPYRP
B13: YKL108W 250-262 (peptide)
chain: STSFSPSPLIRRP
B14: YBL054W 203-215 (peptide)
chain: STFSDHEPQHTKP
B15: YKL027W 380-393 (peptide)
chain: STRLTLTKWDPSKP
B16: YNL014W 670-682 (peptide)
chain: SNMTFQYPGTTKP
B17: YDR273W 125-138 (peptide)
chain: SPEENTDFALPMKP
B18: YFR019W 125-137 (peptide)
chain: SSTIKRYPSRYKP
B19: YDR451C 284-297 (peptide)
chain: SSIFEDHHITPSKP
B20: YKL015W 850-862 (peptide)
chain: SNIVSILPEGAKP
B21: YBL058W 387-400 (peptide)
chain: SRNFTLNYAFPIKP
B22: YKR089C 884-896 (peptide)
chain: SQATKSSPFRSRP
B23: YDR419W 378-390 (peptide)
chain: SRGRYGLPLSSRP
B24: YOR329C 434-447 (peptide)
chain: SNGAIQTGLQPLKP
B25: YGL114W 7-19 (peptide)
chain: SQEVQRVPWDNKP
B26: YDL145C 11-24 (peptide)
chain: STRAKGIAFHPSRP
B27: YNL307C 267-279 (peptide)
chain: SNPAYDGPLFSKP
B28: YKL020C 555-567 (peptide)
chain: STMVTYLPPSSKP
B29: YGR178C 412-425 (peptide)
chain: SSTLKSNSSLPPKP
B30: YAL043C 192-204 (peptide)
chain: STIPDNHPVLNKP
B31: YNL106C 1109-1121 (peptide)
chain: STKPEKPPVVKKP
B32: YBR102C 22-35 (peptide)
chain: SPAKQKTPPSPAKP
B33: YGL008C 14-26 (peptide)
chain: SSVSAHQPTQEKP
B34: YPL137C 250-262 (peptide)
chain: SPMRGVAPTASKP
B35: YLR079W 24-37 (peptide)
chain: SSALMQGQKTPQKP
B36: YNL139C 1440-1453 (peptide)
chain: SSYAHKRSELPTRP
B37: YPL202C 310-323 (peptide)
chain: SSSSSILPSTPTRP
B38: YMR280C 1387-1400 (peptide)
chain: SSGPSASHRGPRRP
B39: YGL021W 216-229 (peptide)
chain: STSSENRLRTPLKP
B40: YDL180W 227-240 (peptide)
chain: SNNVYSSEYHPIKP
B41: YIL056W 426-439 (peptide)
chain: SNRATLLTTLPMKP
B42: YJR035W 262-274 (peptide)
chain: SQRSSDLPEWRRP
B43: YER019W 144-156 (peptide)
chain: STFLYRFPINGRP
B44: YER116C 142-154 (peptide)
chain: SPMLDAAPPTTKP
B45: YBL054W 173-185 (peptide)
chain: SSAIEDSPPDFKP
B46: YNL152W 392-404 (peptide)
chain: SRKNSMSPTRKRP
B47: YJL076W 1069-1081 (peptide)
chain: SSILHDLPRKVRP
B48: YOR290C 408-421 (peptide)
chain: SNKTHTEQNNPPKP
B49: YBR010W 32-44 (peptide)
chain: STGGVKKPHRYKP
B50: YIL156W 492-504 (peptide)
chain: SSTKVPEPPSWKP
B51: YNL020C 51-64 (peptide)
chain: SVASLKRVIVPDKP
B52: YAL019W 19-32 (peptide)
chain: SSPTKVASSSPLKP
B53: YLR155C 216-229 (peptide)
chain: SNDDVEFYYPPVKP
B54: YGL092W 308-320 (peptide)
chain: SPNEIFSPSYSKP

The assay has as its target T1, Abp1 SH3 (ABP1_YEAST), P15891. Description: SPOT array.
Molecule B1 returned a normalised SPOT signal, Boehringer light units (BLU); mean over the file's lines of this peptide of 114. Turning to B2, the normalised SPOT signal, Boehringer light units (BLU); mean over the file's lines of this peptide came out at 409.

B3 yielded a normalised SPOT signal, Boehringer light units (BLU); mean over the file's lines of this peptide of 2950.

With B4, the normalised SPOT signal, Boehringer light units (BLU); mean over the file's lines of this peptide was determined as 347. With B5 the figure was 159.

For B6, the normalised SPOT signal, Boehringer light units (BLU); mean over the file's lines of this peptide came to 329. In turn, B7 gave a normalised SPOT signal, Boehringer light units (BLU); mean over the file's lines of this peptide of 0. B8 yielded a normalised SPOT signal, Boehringer light units (BLU); mean over the file's lines of this peptide of 65.3. Regarding B9, the normalised SPOT signal, Boehringer light units (BLU); mean over the file's lines of this peptide was found to be 67200. In the case of B10 it was 95.4. Consider B11, for which the normalised SPOT signal, Boehringer light units (BLU); mean over the file's lines of this peptide came to 109. Take B12: the normalised SPOT signal, Boehringer light units (BLU); mean over the file's lines of this peptide was determined as 21.8. For the molecule B13, the normalised SPOT signal, Boehringer light units (BLU); mean over the file's lines of this peptide turned out to be 550. With B14 the figure was 96.8. In the case of B15, the normalised SPOT signal, Boehringer light units (BLU); mean over the file's lines of this peptide amounted to 209. In turn, B16 displayed a normalised SPOT signal, Boehringer light units (BLU); mean over the file's lines of this peptide of 144. B17 had a normalised SPOT signal, Boehringer light units (BLU); mean over the file's lines of this peptide of 98.8. With B18, the normalised SPOT signal, Boehringer light units (BLU); mean over the file's lines of this peptide worked out at 238. Molecule B19 gave a normalised SPOT signal, Boehringer light units (BLU); mean over the file's lines of this peptide of 0. As to B20, the normalised SPOT signal, Boehringer light units (BLU); mean over the file's lines of this peptide amounted to 106. B21 showed a normalised SPOT signal, Boehringer light units (BLU); mean over the file's lines of this peptide of 80.1. Regarding B22, the normalised SPOT signal, Boehringer light units (BLU); mean over the file's lines of this peptide turned out to be 1250.

With B23, the normalised SPOT signal, Boehringer light units (BLU); mean over the file's lines of this peptide came to 327. In the case of B24 it was 70.4. As for B25, the normalised SPOT signal, Boehringer light units (BLU); mean over the file's lines of this peptide was 86.2. Turning to B26, the normalised SPOT signal, Boehringer light units (BLU); mean over the file's lines of this peptide worked out at 119. The molecule B27 showed a normalised SPOT signal, Boehringer light units (BLU); mean over the file's lines of this peptide of 95.6. In the case of B28 it was 136; in that of B29, 69; in that of B30, 117. Turning to B31, the normalised SPOT signal, Boehringer light units (BLU); mean over the file's lines of this peptide worked out at 13300. B32 registered a normalised SPOT signal, Boehringer light units (BLU); mean over the file's lines of this peptide of 54.6. As to B33, the normalised SPOT signal, Boehringer light units (BLU); mean over the file's lines of this peptide was 161. B34 displayed a normalised SPOT signal, Boehringer light units (BLU); mean over the file's lines of this peptide of 2700. In the case of B35 it was 335; in that of B36, 201. On to B37, for which the normalised SPOT signal, Boehringer light units (BLU); mean over the file's lines of this peptide amounted to 70.9. Molecule B38 yielded a normalised SPOT signal, Boehringer light units (BLU); mean over the file's lines of this peptide of 390. Consider B39, for which the normalised SPOT signal, Boehringer light units (BLU); mean over the file's lines of this peptide was 76.6. As for B40, the normalised SPOT signal, Boehringer light units (BLU); mean over the file's lines of this peptide is 12.1. The molecule B41 registered a normalised SPOT signal, Boehringer light units (BLU); mean over the file's lines of this peptide of 243. As for B42, the normalised SPOT signal, Boehringer light units (BLU); mean over the file's lines of this peptide came to 377.

The molecule B43 displayed a normalised SPOT signal, Boehringer light units (BLU); mean over the file's lines of this peptide of 89.3. In the case of B44 it was 158; in that of B45, 85.8. Regarding B46, the normalised SPOT signal, Boehringer light units (BLU); mean over the file's lines of this peptide was 209. As for B47, the normalised SPOT signal, Boehringer light units (BLU); mean over the file's lines of this peptide came out at 786.

B48 registered a normalised SPOT signal, Boehringer light units (BLU); mean over the file's lines of this peptide of 83.8. The molecule B49 returned a normalised SPOT signal, Boehringer light units (BLU); mean over the file's lines of this peptide of 130. The molecule B50 came in with a normalised SPOT signal, Boehringer light units (BLU); mean over the file's lines of this peptide of 34.3. B51 had a normalised SPOT signal, Boehringer light units (BLU); mean over the file's lines of this peptide of 388.

Turning to B52, the normalised SPOT signal, Boehringer light units (BLU); mean over the file's lines of this peptide is 104.

Turning to B53, the normalised SPOT signal, Boehringer light units (BLU); mean over the file's lines of this peptide stood at 92.8. Turning to B54, the normalised SPOT signal, Boehringer light units (BLU); mean over the file's lines of this peptide came out at 66.1.
